# Source: US20120190819A1 (MEDICAL RESEARCH COUNCIL, published 2012)
# T1: carboxymethylated papain on agarose beads (Calbiochem) (UniProt P00784 134-345, carboxymethylated)
# T1 construct: also called immobilized papain; papain-agarose beads
# T1 sequence (looked up): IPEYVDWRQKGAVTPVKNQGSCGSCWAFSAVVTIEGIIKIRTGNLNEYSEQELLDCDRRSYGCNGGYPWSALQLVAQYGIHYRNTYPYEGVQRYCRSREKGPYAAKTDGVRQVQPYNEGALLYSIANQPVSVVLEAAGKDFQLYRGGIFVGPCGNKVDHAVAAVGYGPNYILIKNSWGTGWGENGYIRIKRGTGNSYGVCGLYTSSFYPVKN
# Assays:
# [1] = biological target: T2, SH3 domain of yeast Sho1p (yeast two-hybrid bait, pEG202-Sho1-SH3) (yeast, UniProt P40073 300-367, limits assumed); assay: yeast two-hybrid screen, confirmed by interaction mating
# T2 construct: domain: SH3 domain; also called Sho1p SH3 domain
# From the text: (§1) Degenerate oligonucleotide cassettes were made by annealing and amplifying P20 and P21 encoding a biased library designed around the Pbs2p proline rich sequence ([…]) (SEQ ID NO: 33) that interacts with the SH3 domain of Sho1p. Translation of the cassette gives X(L/V/P/A)N(K/R)PLP(P/S/A)LP(L/V/P/A)X (SEQ ID NO: 34). At the DNA level, this oligonucleotide should give rise to a library with a theoretical complexity of 98,304. The cassette was ligated into STM pJG4-5, and grown up in XL10 Gold cells (Stratagene). The midi-prepped (Qiagen) DNA was used to create a yeast library of 6×10⁴ cells in EGY48, theoretically covering 60% of the sequences encoded by the library. These cells were mated with EGY42 cells carrying pEG202-Sho1-SH3, made as described above. Interactors were selected on -UHTL/X-Gal/Gal-Raff plates for 4 days, picked and the plasmids rescued into E. coli KC8 cells. The plasmids were transformed back into EGY48 to confirm interaction with the SH3 domain of Sho1p in EGY42 using an interaction-mating matrix.
# [2] = biological target: T2, SH3 domain of yeast Sho1p (yeast …); assay: yeast two-hybrid screen
# From the text: as §1
# [3] = biological target: T2, SH3 domain of yeast Sho1p (yeast …); assay: yeast two-hybrid interaction mating
# From the text: The yeast genome encodes 25 proteins that between them comprise 28 SH3 domains. Each domain, or combination of domains, was cloned as a yeast two hybrid bait, and tested by interaction mating for its ability to recognise AptA. […] The SH3 domain of Bud14 is a self-activating bait, giving rise to a blue colour even when mated to an empty prey plasmid. […] AptA* is the mutant version of AptA where the two proline residues of the PxxP motif have been changed to alanines (PP/AA). STM is the empty scaffold.
# [4] = biological target: the molecule itself; assay: gel filtration (self-association, domain-swapped dimer)
# Procedure: (§2) To confirm that the engineered scaffold was correctly folded, we used gel filtration chromatography to ask whether we could detect any denatured or dimerized STM in its native form. Recombinant STM AU1 migrated close to its predicted size and similarly to wild type SteA (FIG. 3, panel A). When the protein preparations were heated to 75° C. before gel filtration, a proportion of SteA migrated as a dimer. […] The CD spectra of native SteA at 25° C. and 50° C. and native STM AU1 at 25° C. and 50° C.
# [5] = biological target: the molecule itself; assay: SDS-PAGE after 75° C. or ice (self-association)
# Procedure: We wished to ascertain whether we could insert peptides into STM without affecting its stability as a protein. We modelled a peptide aptamer by inserting the six residue “AU1” epitope tag (DTYRYI) (SEQ ID NO: 32) into the engineered loop. We wished to retain the thermostability of SteA but abolish its dimerization by domain-swapping, which is enhanced by heating. We incubated recombinant SteA, STM and STM AU1 at 75° C. or on ice for 20 minutes, and removed any denatured protein by centrifugation. […] As expected, this dimeric form is completely abolished in both STM and STM AU1 (FIG. 2A).
# [6] = biological target: the molecule itself; assay: gel filtration after heating to 75° C. (self-association)
# Procedure: as §2
# [7] = biological target: T1, carboxymethylated papain on agarose …; assay: papain-agarose pull-down, western blot with anti-SteA
# Procedure: Agarose beads carrying carboxymethylated papain (Calbiochem) were washed three times in EB (equilibration buffer: 50 mM sodium phosphate pH 6.5, 0.5M NaCl, 0.1% non-detergent sulfobetaines). The beads were blocked with 1 mg/ml BSA in EB for 30 mins at 4° C. and washed three more times in EB. 300 μg of recombinant SteA or STM AU1 in 1×TBS buffer was diluted into EB to produce a total of volume of 500 μL and incubated with the beads with turning end over end for 90 mins at 4° C. The beads were then washed three times in EB and resuspended in 50 μl of sample buffer for analysis by 12% SDS-PAGE gel and western blotting using an anti-steA monoclonal antibody (C5/2, Maryland Biosciences).
# T2 sequence (P40073 300-367 limits assumed): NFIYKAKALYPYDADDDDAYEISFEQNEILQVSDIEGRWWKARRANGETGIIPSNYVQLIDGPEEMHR
Binder,binding result [1],binding result [2],also measured
"STM peptide aptamer 10 (designed binder, Insert (with its GP ends) constrained in STM) MIPWGLSEAKPATPEIQEIVDKVKPQLEEKTNETYGKLEAVQYKTQVDAGTNYYIKVRAGDNKYMHLKVFNGPILNKPLPALPLRGPDPNRPLPALPVTGPPGQNEDLVLTGYQVDKNKDDELTGF",binds,–,–
"STM peptide aptamer 20 (designed binder, Insert (with its GP ends) constrained in STM) MIPWGLSEAKPATPEIQEIVDKVKPQLEEKTNETYGKLEAVQYKTQVDAGTNYYIKVRAGDNKYMHLKVFNGPRMNKPLPSLPLGGPAMNKPLPALPLQGPPGQNEDLVLTGYQVDKNKDDELTGF",binds,–,–
"STM peptide aptamer 17 (designed binder, Insert (with its GP ends) constrained in STM) MIPWGLSEAKPATPEIQEIVDKVKPQLEEKTNETYGKLEAVQYKTQVDAGTNYYIKVRAGDNKYMHLKVFNGPEPNKPLPALPLTGPVLNRPLPPLPRNGPPGQNEDLVLTGYQVDKNKDDELTGF",binds,–,–
"STM peptide aptamer 11 (designed binder, Insert (with its GP ends) constrained in STM) MIPWGLSEAKPATPEIQEIVDKVKPQLEEKTNETYGKLEAVQYKTQVDAGTNYYIKVRAGDNKYMHLKVFNGPFPNKPLPALPLTGPVLNRPLPPLPRNGPPGQNEDLVLTGYQVDKNKDDELTGF",binds,–,–
"STM peptide aptamer 13 (designed binder, Insert (with its GP ends) constrained in STM) MIPWGLSEAKPATPEIQEIVDKVKPQLEEKTNETYGKLEAVQYKTQVDAGTNYYIKVRAGDNKYMHLKVFNGPYLNKPLPSLPLCGPSVNRPLPALPDVGPPGQNEDLVLTGYQVDKNKDDELTGF",binds,–,–
"AptA (peptide aptamer A in truncated STM) (designed binder, Scaffold ends at the in-frame stop codon after the 11mer (unconstrained C-terminal peptide); also called PepA; pepA) MIPWGLSEAKPATPEIQEIVDKVKPQLEEKTNETYGKLEAVQYKTQVDAGTNYYIKVRAGDNKYMHLKVFNGPRLNKPLPSLPV",–,binds,–
"Apt32 (peptide aptamer 032 in truncated STM) (designed binder, Scaffold ends at the in-frame stop codon after the 11mer; also called Pep32) MIPWGLSEAKPATPEIQEIVDKVKPQLEEKTNETYGKLEAVQYKTQVDAGTNYYIKVRAGDNKYMHLKVFNGPLPNKPLPSLPL",–,binds,–
"Apt124 (peptide aptamer 124 in truncated STM) (designed binder, Scaffold ends at the in-frame stop codon after the 11mer) MIPWGLSEAKPATPEIQEIVDKVKPQLEEKTNETYGKLEAVQYKTQVDAGTNYYIKVRAGDNKYMHLKVFNGPRGNKPLPALPL",–,binds,–
"AptA* (AptA with the two prolines of the PxxP motif changed to alanines) (designed binder, also called AptA PP/AA; AxxA mutation of AptA) MIPWGLSEAKPATPEIQEIVDKVKPQLEEKTNETYGKLEAVQYKTQVDAGTNYYIKVRAGDNKYMHLKVFNGPRLNKPLASLAV",–,–,binding result [3]: no binding
"STM peptide aptamer 03 (designed binder, Insert (with its GP ends) constrained in STM; also called Apt03) MIPWGLSEAKPATPEIQEIVDKVKPQLEEKTNETYGKLEAVQYKTQVDAGTNYYIKVRAGDNKYMHLKVFNGPDLNKPLPALPVHGPPGQNEDLVLTGYQVDKNKDDELTGF",binds,–,–
"STM peptide aptamer 05 (designed binder, Insert (with its GP ends) constrained in STM; also called Apt05; Pep05) MIPWGLSEAKPATPEIQEIVDKVKPQLEEKTNETYGKLEAVQYKTQVDAGTNYYIKVRAGDNKYMHLKVFNGPNLNKPLPALPVLGPPGQNEDLVLTGYQVDKNKDDELTGF",binds,–,–
"wild type Stefin A (human, recombinant) (other, Expressed in E. coli from pET30a(+) with a hexa-histidine tag; also called SteA; Cystatin A) MIPGGLSEAKPATPEIQEIVDKVKPQLEEKTNETYGKLEAVQYKTQVVAGTNYYIKVRAGDNKYMHLKVFKSLPGQNEDLVLTGYQVDKNKDDELTGF",–,–,binding result [4]: binds
"STM (Stefin A Triple Mutant), recombinant, no insert (designed binder, Expressed in E. coli from pET30a(+) with a hexa-histidine tag; also called STM triple mutant) MIPWGLSEAKPATPEIQEIVDKVKPQLEEKTNETYGKLEAVQYKTQVDAGTNYYIKVRAGDNKYMHLKVFNGPPGQNEDLVLTGYQVDKNKDDELTGF",–,–,binding result [5]: no binding
"Apt94 (peptide aptamer 094 in truncated STM) (designed binder, Truncated by a frame-shift and an out-of-frame stop codon) MIPWGLSEAKPATPEIQEIVDKVKPQLEEKTNETYGKLEAVQYKTQVDAGTNYYIKVRAGDNKYMHLKVFNGPANKPLPALPALGSAVE",–,binds,–
"Apt34 (peptide aptamer 034 in truncated STM) (designed binder, Truncated by a frame-shift and an out-of-frame stop codon) MIPWGLSEAKPATPEIQEIVDKVKPQLEEKTNETYGKLEAVQYKTQVDAGTNYYIKVRAGDNKYMHLKVFNGPSVNKPLPSLPSLPVYGP",–,binds,–
"STM comprising target peptide AU1 epitope (designed binder, Expressed in E. coli from pET30a(+) with a hexa-histidine tag; also called STM AU1; STM/AU1) MIPWGLSEAKPATPEIQEIVDKVKPQLEEKTNETYGKLEAVQYKTQVDAGTNYYIKVRAGDNKYMHLKVFNGPDTYRYIGPPGQNEDLVLTGYQVDKNKDDELTGF",–,–,binding result [6]: no binding; binding result [7]: no binding (tested: 300 µg)
"Apt40 (peptide aptamer 040 in truncated STM) (designed binder, Truncated by a frame-shift and an out-of-frame stop codon) MIPWGLSEAKPATPEIQEIVDKVKPQLEEKTNETYGKLEAVQYKTQVDAGTNYYIKVRAGDNKYMHLKVFNGPVENKPLPALPAVGP",–,binds,–
